Data from patent publication US20090035321A1, “Intercellular adhesion molecules and their binding ligands” (Boehringer Ingelheim Pharmaceuticals, Inc., published 2009).

How the values were obtained:
[1] = biological target: ICAM-1 A115N/SV (printed A155N/SV at paragraph 410) (human) (UniProt P05362); test: flow, COS cells
[2] = biological target: ICAM-1 N269QSQI/IQAEQ (human) (UniProt P05362); test: flow, COS cells
ICAM-1 S5/T (human) = ICAM-1 S5/T (human) (UniProt P05362); test: flow, COS cells
ICAM-1 N240DS/KNA = ICAM-1 N240DS/KNA (human, UniProt P05362); test: flow, COS cells
ICAM-1 E254DE/KEK = ICAM-1 E254DE/KEK (human, UniProt P05362); test: flow, COS cells
ICAM-1 Q1/E = ICAM-1 Q1/E (human, UniProt P05362); test: flow, COS cells
ICAM-1 S3VS/AGL = ICAM-1 S3VS/AGL (human, UniProt P05362); test: flow, COS cells
ICAM-1 S3/T = ICAM-1 S3/T (human, UniProt P05362); test: flow, COS cells
ICAM-1 V4/G = ICAM-1 V4/G (human, UniProt P05362); test: flow, COS cells
ICAM-1 K8/E = ICAM-1 K8/E (human, UniProt P05362); test: flow, COS cells
ICAM-1 R13/K = ICAM-1 R13/K (human, UniProt P05362); test: flow, COS cells
ICAM-1 R13/Q = ICAM-1 R13/Q (human, UniProt P05362); test: flow, COS cells
ICAM-1 G15/SA = ICAM-1 G15/SA (human, UniProt P05362); test: flow, COS cells
ICAM-1 T20CS/ACT = ICAM-1 T20CS/ACT (human, UniProt P05362); test: flow, COS cells
ICAM-1 S24/A = ICAM-1 S24/A (human, UniProt P05362); test: flow, COS cells
ICAM-1 Q27/L = ICAM-1 Q27/L (human, UniProt P05362); test: flow, COS cells
ICAM-1 E34/A = ICAM-1 E34/A (human, UniProt P05362); test: flow, COS cells
ICAM-1 K40/A = ICAM-1 K40/A (human, UniProt P05362); test: flow, COS cells
ICAM-1 G46NN/ASI = ICAM-1 G46NN/ASI (human, UniProt P05362); test: flow, COS cells
ICAM-1 R49KV/EKL = ICAM-1 R49KV/EKL (human, UniProt P05362); test: flow, COS cells
ICAM-1 K50V/EL = ICAM-1 K50V/EL (human, UniProt P05362); test: flow, COS cells
ICAM-1 N56V/HM = ICAM-1 N56V/HM (human, UniProt P05362); test: flow, COS cells
ICAM-1 Q58EDS/AKDI = ICAM-1 Q58EDS/AKDI (human, UniProt P05362); test: flow, COS cells
ICAM-1 D60S/KL = ICAM-1 D60S/KL (human, UniProt P05362); test: flow, COS cells
ICAM-1 D60/N = ICAM-1 D60/N (human, UniProt P05362); test: flow, COS cells
ICAM-1 Y66/T = ICAM-1 Y66/T (human, UniProt P05362); test: flow, COS cells
ICAM-1 N68/K = ICAM-1 N68/K (human, UniProt P05362); test: flow, COS cells
ICAM-1 D71/E = ICAM-1 D71/E (human, UniProt P05362); test: flow, COS cells
ICAM-1 D71/N = ICAM-1 D71/N (human, UniProt P05362); test: flow, COS cells
ICAM-1 Q73/H = ICAM-1 Q73/H (human, UniProt P05362); test: flow, COS cells
ICAM-1 T75/A = ICAM-1 T75/A (human, UniProt P05362); test: flow, COS cells
ICAM-1 K77T/ES = ICAM-1 K77T/ES (human, UniProt P05362); test: flow, COS cells
ICAM-1 E87/K = ICAM-1 E87/K (human, UniProt P05362); test: flow, COS cells
ICAM-1 R88V/EA = ICAM-1 R88V/EA (human, UniProt P05362); test: flow, COS cells
ICAM-1 E90/Q = ICAM-1 E90/Q (human, UniProt P05362); test: flow, COS cells
ICAM-1 E90/K = ICAM-1 E90/K (human, UniProt P05362); test: flow, COS cells
ICAM-1 L91/A = ICAM-1 L91/A (human, UniProt P05362); test: flow, COS cells
ICAM-1 R125/E = ICAM-1 R125/E (human, UniProt P05362); test: flow, COS cells
ICAM-1 E127/R = ICAM-1 E127/R (human, UniProt P05362); test: flow, COS cells
ICAM-1 V136GE/GVK = ICAM-1 V136GE/GVK (human, UniProt P05362); test: flow, COS cells
ICAM-1 R149RD/EEG = ICAM-1 R149RD/EEG (human, UniProt P05362); test: flow, COS cells
ICAM-1 H152HGA/EEGS = ICAM-1 H152HGA/EEGS (human, UniProt P05362); test: flow, COS cells
ICAM-1 R166PQ/EPA = ICAM-1 R166PQ/EPA (human, UniProt P05362); test: flow, COS cells
ICAM-1 N175TSA/QTLG = ICAM-1 N175TSA/QTLG (human, UniProt P05362); test: flow, COS cells
ICAM-1 N175/A = ICAM-1 N175/A (human, UniProt P05362); test: flow, COS cells
ICAM-1 S177/G = ICAM-1 S177/G (human, UniProt P05362); test: flow, COS cells
ICAM-1 A178/G = ICAM-1 A178/G (human, UniProt P05362); test: flow, COS cells
ICAM-1 A189T/SI = ICAM-1 A189T/SI (human, UniProt P05362); test: flow, COS cells
ICAM-1 D203TQ/TAD = ICAM-1 D203TQ/TAD (human, UniProt P05362); test: flow, COS cells
ICAM-1 D213GL/HGV = ICAM-1 D213GL/HGV (human, UniProt P05362); test: flow, COS cells
[3] = biological target: Intercellular Adhesion Molecule-1 (ICAM-1), wild type, on the cell surface (human) (UniProt P05362); test: COS cell adhesion to purified LFA-1, no antibody

What does the source list for monoclonal antibody CL203?
SLFI % WT [1]: 60 % WT; SLFI % WT [2]: 95 % WT; SLFI % WT (ICAM-1 S5/T (human)): 251 % WT; SLFI % WT (ICAM-1 N240DS/KNA): 142 % WT; SLFI % WT (ICAM-1 E254DE/KEK): 180 % WT; SLFI % WT (ICAM-1 Q1/E): 135 % WT; SLFI % WT (ICAM-1 S3VS/AGL): 121 % WT; SLFI % WT (ICAM-1 S3/T): 224 % WT; SLFI % WT (ICAM-1 V4/G): 111 % WT; SLFI % WT (ICAM-1 K8/E): 111 % WT; SLFI % WT (ICAM-1 R13/K): 189 % WT; SLFI % WT (ICAM-1 R13/Q): 161 % WT; SLFI % WT (ICAM-1 G15/SA): 172 % WT; SLFI % WT (ICAM-1 T20CS/ACT): 148 % WT; SLFI % WT (ICAM-1 S24/A): 158 % WT; SLFI % WT (ICAM-1 Q27/L): 33 % WT; SLFI % WT (ICAM-1 E34/A): 132 % WT; SLFI % WT (ICAM-1 K40/A): 146 % WT; SLFI % WT (ICAM-1 G46NN/ASI): 151 % WT; SLFI % WT (ICAM-1 R49KV/EKL): 233 % WT; SLFI % WT (ICAM-1 K50V/EL): 103 % WT; SLFI % WT (ICAM-1 N56V/HM): 121 % WT; SLFI % WT (ICAM-1 Q58EDS/AKDI): 98 % WT; SLFI % WT (ICAM-1 D60S/KL): 105 % WT; SLFI % WT (ICAM-1 D60/N): 127 % WT; SLFI % WT (ICAM-1 Y66/T): 144 % WT; SLFI % WT (ICAM-1 N68/K): 153 % WT; SLFI % WT (ICAM-1 D71/E): 124 % WT; SLFI % WT (ICAM-1 D71/N): 109 % WT; SLFI % WT (ICAM-1 Q73/H): 139 % WT; SLFI % WT (ICAM-1 T75/A): 153 % WT; SLFI % WT (ICAM-1 K77T/ES): 151 % WT; SLFI % WT (ICAM-1 E87/K): 94 % WT; SLFI % WT (ICAM-1 R88V/EA): 113 % WT; SLFI % WT (ICAM-1 E90/Q): 152 % WT; SLFI % WT (ICAM-1 E90/K): 29 % WT; SLFI % WT (ICAM-1 L91/A): 15 % WT; SLFI % WT (ICAM-1 R125/E): 145 % WT; SLFI % WT (ICAM-1 E127/R): 191 % WT; SLFI % WT (ICAM-1 V136GE/GVK): 171 % WT; SLFI % WT (ICAM-1 R149RD/EEG): 159 % WT; SLFI % WT (ICAM-1 H152HGA/EEGS): 94 % WT; SLFI % WT (ICAM-1 R166PQ/EPA): 94 % WT; SLFI % WT (ICAM-1 N175TSA/QTLG): 75 % WT; SLFI % WT (ICAM-1 N175/A): 80 % WT; SLFI % WT (ICAM-1 S177/G): 87 % WT; SLFI % WT (ICAM-1 A178/G): 304 % WT; SLFI % WT (ICAM-1 A189T/SI): 138 % WT; SLFI % WT (ICAM-1 D203TQ/TAD): 125 % WT; SLFI % WT (ICAM-1 D213GL/HGV): 128 % WT

With “purified LFA-1, bound to plastic (from UniProt P20701) (receptor)” as the substance, how does the % of Cells Expressing ICAM-1 that Bind LFA-1 [3] read?
Its % of Cells Expressing ICAM-1 that Bind LFA-1 is 20%.
